Data from PMC8102515.
Values joined by “and” are separate entries in the source; they are usually repeats but may differ in a detail not shown here. Equal entries are not always repeated.

How the values were obtained:
[1] = target: T1, human peroxiredoxin 6 (human), P30041; experiment: dynamic light scattering; hPrdx6 1.0 mg/ml, pH 8.0; fixed angle of 90°, laser 689 nm; settings: remark: other sources report otherwise
T1 chain: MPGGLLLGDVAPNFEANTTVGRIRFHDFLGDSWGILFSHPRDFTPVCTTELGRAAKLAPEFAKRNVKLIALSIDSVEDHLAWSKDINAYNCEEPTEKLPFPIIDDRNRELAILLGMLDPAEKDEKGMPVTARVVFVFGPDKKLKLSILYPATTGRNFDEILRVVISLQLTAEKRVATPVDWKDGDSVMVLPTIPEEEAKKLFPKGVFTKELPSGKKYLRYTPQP

[2] = target: T1, human peroxiredoxin 6 (human), P30041; experiment: dynamic light scattering; hPrdx6 1.0 mg/ml, pH 3.0; fixed angle of 90°, laser 689 nm; settings: remark: other sources report otherwise
[3] = target: T1, human peroxiredoxin 6 (human), P30041; experiment: dynamic light scattering; hPrdx6 1.0 mg/ml, pH 6.0; fixed angle of 90°, laser 689 nm; settings: remark: other sources report otherwise
[4] = target: T1, human peroxiredoxin 6 (human), P30041; experiment: dynamic light scattering; hPrdx6 1.0 mg/ml, pH 9.0; fixed angle of 90°, laser 689 nm; settings: remark: other sources report otherwise
[5] = target: T1, human peroxiredoxin 6 (human), P30041; experiment: dynamic light scattering; hPrdx6 1.0 mg/ml, pH 10.0; fixed angle of 90°, laser 689 nm; settings: remark: other sources report otherwise
[6] = target: T1, human peroxiredoxin 6 (human), P30041; experiment: dynamic light scattering; hPrdx6 1.0 mg/ml, pH 2.0; fixed angle of 90°, laser 689 nm; two peaks; settings: remark: other sources report otherwise
[7] = target: T1, human peroxiredoxin 6 (human), P30041; experiment: dynamic light scattering; hPrdx6 1.0 mg/ml, pH 5.0; fixed angle of 90°, laser 689 nm; two peaks; settings: remark: other sources report otherwise
[8] = target: T1, human peroxiredoxin 6 (human), P30041; experiment: dynamic light scattering; hPrdx6 1.0 mg/ml, pH 4.0; fixed angle of 90°, laser 689 nm; oligomer told from the hydrodynamic diameter; settings: remark: other sources report otherwise
[9] = target: T1, human peroxiredoxin 6 (human), P30041; experiment: dynamic light scattering; hPrdx6 1.0 mg/ml, pH 7.0; fixed angle of 90°, laser 689 nm; oligomer told from the hydrodynamic diameter; settings: remark: other sources report otherwise
[10] = target: P30041; experiment: dynamic light scattering; hPrdx6 1.0 mg/ml, pH 2.0; fixed angle of 90°, laser 689 nm; two peaks; settings: other: dynamic light scattering

B1: human peroxiredoxin 6, P30041 1-224 (enzyme)
chain: T1 chain
In the case of B1, the stoichiometry N [1] is reported as 2, the volume fraction of the dimer peak (Hd 6.31 nm) [1] is reported as 100% and the stoichiometry N [2] is reported as 4. The volume fraction of the tetramer peak (Hd 12.2 nm) [2] was 99.2%, the stoichiometry N [3] was 2 and the volume fraction of the dimer peak (Hd 8.12 nm) [3] was 100%. The stoichiometry N [4] was 2, the volume fraction of the dimer peak (Hd 6.4 nm) [4] was 100% and the stoichiometry N [5] was 2. It also gave a volume fraction of the dimer peak (Hd 6.3 nm) [5] of 100%, a stoichiometry N [6] of 2 and a volume fraction of the larger peak (Hd 14.17 nm; the text's dimer) [6] of 30.2%. For the same binder, the stoichiometry N [7] was 2 and 4, the volume fraction of the dimer peak (Hd 6.39 nm) [7] was 29.8% and the volume fraction of the tetramer peak (Hd 13.44 nm) [7] was 70.2%. The stoichiometry N [8] was 4, the volume fraction of the tetramer peak (Hd 13.75 nm) [8] was 99.6% and the stoichiometry N [9] was 2. It also gave a volume fraction of the dimer peak (Hd 7.1 nm) [9] of 100%.

B2: human peroxiredoxin 6 (protein)
chain: T1 chain
In the case of B2, the volume fraction of the monomer peak (Hd 3.7 nm) [10] is reported as 69.8%.
